According to paper doi:10.64898/2025.12.07.692841:
Where two headings read alike, the source gives them in different places.

Legend:
Assay in all cases: crystal structure
[1] = molecular target: nitrogenase reductase NifH (dimer) from Methanocaldococcus infernus (Methanocaldococcus infernus strain DSM 11812)
[2] = molecular target: PII-nitrogen regulatory protein NifI2 from Methanocaldococcus infernus (Methanocaldococcus infernus strain DSM 11812)
[3] = molecular target: PII-nitrogen regulatory protein NifI2 from Methanocaldococcus infernus (Methanocaldococcus infernus strain DSM 11812); remark: listed apart in the source

| stoichiometry N [1] | stoichiometry N [2] | stoichiometry N [3] | Substance |
| --- | --- | --- | --- |
| 2 | – | – | nitrogenase reductase NifH (dimer) from Methanocaldococcus infernus (enzyme) |
| – | 2 | 2 | PII-nitrogen regulatory protein NifI2 from Methanocaldococcus infernus (natural protein) |
